{"source": "patent US6051396", "key": {"[1]": {"molecular_target": "T1, trpE-RB23-27 fusion (Homo sapiens) (UniProt P06400)", "T1 sequence": "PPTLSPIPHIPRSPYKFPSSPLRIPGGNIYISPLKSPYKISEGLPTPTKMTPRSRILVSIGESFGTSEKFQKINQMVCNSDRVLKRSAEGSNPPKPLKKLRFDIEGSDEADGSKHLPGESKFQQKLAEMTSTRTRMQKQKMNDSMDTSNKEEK", "conditions": "Southwestern blot; stated as RB19-27 having 20-fold higher affinity; 50 mM NaCl, pH 7.0, room temperature"}, "[2]": {"molecular_target": "T2, trpE-RB19-22 fusion (Homo sapiens) (UniProt P06400)", "T2 sequence": "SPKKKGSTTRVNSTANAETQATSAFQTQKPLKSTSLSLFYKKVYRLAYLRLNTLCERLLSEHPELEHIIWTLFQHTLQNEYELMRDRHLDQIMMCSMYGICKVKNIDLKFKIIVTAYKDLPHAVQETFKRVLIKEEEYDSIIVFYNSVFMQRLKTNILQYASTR", "conditions": "Southwestern blot; stated as RB19-27 having 20-fold higher affinity; 50 mM NaCl, pH 7.0, room temperature"}, "[3]": {"molecular_target": "T3, trpE-RB19-27 fusion (Homo sapiens) (UniProt P06400)", "T3 sequence": "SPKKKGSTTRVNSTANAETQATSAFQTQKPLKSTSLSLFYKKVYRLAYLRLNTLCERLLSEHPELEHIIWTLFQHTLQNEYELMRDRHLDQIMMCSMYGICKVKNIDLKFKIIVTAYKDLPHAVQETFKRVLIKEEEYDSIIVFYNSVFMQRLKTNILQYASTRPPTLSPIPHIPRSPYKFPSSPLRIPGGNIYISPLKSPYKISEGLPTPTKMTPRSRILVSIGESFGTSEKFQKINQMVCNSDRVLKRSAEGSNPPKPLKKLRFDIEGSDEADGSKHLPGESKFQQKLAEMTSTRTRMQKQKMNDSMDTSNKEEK", "conditions": "Southwestern blot; 20-fold higher affinity than either subregion; 50 mM NaCl, pH 7.0, room temperature"}}}
{"substance": "pGEM1 plasmid DNA linearized by EcoRI, random-primed probe", "values": [{"measurement": "binding signal (fraction of RB19-27)", "setting": "[1]", "value": 0.05}, {"measurement": "binding signal (fraction of RB19-27)", "setting": "[2]", "value": 0.05}, {"measurement": "binding signal (fold vs RB19-22 or RB23-27)", "setting": "[3]", "value": 20}]}
